In publication PMC10786891, “Massively parallel profiling of RNA-targeting CRISPR-Cas13d”:
Residue numbers refer to the chain shown, from its start. Names may count otherwise.

T1: EsCas13d, nuclease-dead (Eubacterium siraeum, UniProt B0MS50, R295A;H300A;R849A;H854A)
T1 sequence: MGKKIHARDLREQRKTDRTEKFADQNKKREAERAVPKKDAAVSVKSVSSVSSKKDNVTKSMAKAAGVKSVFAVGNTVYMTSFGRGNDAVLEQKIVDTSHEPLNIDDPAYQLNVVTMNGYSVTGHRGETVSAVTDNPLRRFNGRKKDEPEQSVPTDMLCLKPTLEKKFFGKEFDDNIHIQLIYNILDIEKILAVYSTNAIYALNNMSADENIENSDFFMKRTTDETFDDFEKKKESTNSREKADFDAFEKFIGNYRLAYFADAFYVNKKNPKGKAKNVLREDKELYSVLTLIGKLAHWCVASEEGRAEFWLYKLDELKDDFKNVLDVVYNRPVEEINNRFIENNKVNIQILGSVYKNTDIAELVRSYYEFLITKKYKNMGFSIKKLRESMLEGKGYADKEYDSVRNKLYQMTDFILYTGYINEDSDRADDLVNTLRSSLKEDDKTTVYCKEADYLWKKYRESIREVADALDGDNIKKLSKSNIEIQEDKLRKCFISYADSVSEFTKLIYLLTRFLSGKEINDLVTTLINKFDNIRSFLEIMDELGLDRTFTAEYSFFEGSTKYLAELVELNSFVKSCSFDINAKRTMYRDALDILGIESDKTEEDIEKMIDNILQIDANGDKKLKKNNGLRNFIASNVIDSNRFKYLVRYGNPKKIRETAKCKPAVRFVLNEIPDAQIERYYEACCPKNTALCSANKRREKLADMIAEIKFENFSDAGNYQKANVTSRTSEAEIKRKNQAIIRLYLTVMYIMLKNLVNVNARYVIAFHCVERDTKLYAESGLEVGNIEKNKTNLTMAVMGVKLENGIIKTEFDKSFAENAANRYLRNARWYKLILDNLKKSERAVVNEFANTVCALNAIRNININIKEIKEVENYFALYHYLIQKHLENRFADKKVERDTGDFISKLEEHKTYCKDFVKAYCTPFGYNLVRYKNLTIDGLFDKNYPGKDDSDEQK

B1: target 1 MT 5'PFS UGU 3'PFS CAU (mixed)
RNA 1: CACCCGUGCAAAAAUGCAGGGGUCUAAAACUGAGCGGAUAACCUCUCUAUGG
RNA 2: GGGAAUGGAUCCACAUCUACGAAUUCUGUCCAUAGAGAGGUUAUCCGCUCACAUAGAUCGGAAGAGCACACGU
B2: target 1 MT 5'PFS CCC 3'PFS UGC (mixed)
RNA 1: B1 RNA 1
RNA 2: B1 RNA 2 with U27C, G28C, U29C, C52U, A53G, U54C
B3: target 1 MT 5'PFS GAC 3'PFS UGU (mixed)
RNA 1: B1 RNA 1
RNA 2: B1 RNA 2 with U27G, G28A, U29C, C52U, A53G
B4: target 1 C2U,U11G (mixed)
RNA 1: B1 RNA 1
RNA 2: B1 RNA 2 with U27G, G28U, U29A, U41G, C50U, A53C, U54G
B5: target 1 MT 5'PFS UUG 3'PFS UCG (mixed)
RNA 1: B1 RNA 1
RNA 2: B1 RNA 2 with G28U, U29G, C52U, A53C, U54G
B6: target 1 MT 5'PFS UGU 3'PFS UAA (mixed)
RNA 1: B1 RNA 1
RNA 2: B1 RNA 2 with C52U, U54A
B7: target 1 MT 5'PFS AAA 3'PFS CGU (mixed)
RNA 1: B1 RNA 1
RNA 2: B1 RNA 2 with U27A, G28A, U29A, A53G
B8: target 1 MT 5'PFS AAC 3'PFS AGG (mixed)
RNA 1: B1 RNA 1
RNA 2: B1 RNA 2 with U27A, G28A, U29C, C52A, A53G, U54G
B9: target 1 MT 5'PFS GGA 3'PFS AAA (mixed)
RNA 1: B1 RNA 1
RNA 2: B1 RNA 2 with U27G, U29A, C52A, U54A
B10: target 1 MT 5'PFS GAC 3'PFS UGA (mixed)
RNA 1: B1 RNA 1
RNA 2: B1 RNA 2 with U27G, G28A, U29C, C52U, A53G, U54A
B11: target 1 MT 5'PFS UUA 3'PFS UCG (mixed)
RNA 1: B1 RNA 1
RNA 2: B1 RNA 2 with G28U, U29A, C52U, A53C, U54G
B12: target 1 MT 5'PFS AAC 3'PFS AGA (mixed)
RNA 1: B1 RNA 1
RNA 2: B1 RNA 2 with U27A, G28A, U29C, C52A, A53G, U54A
B13: target 1 insU 3' of 22,insC 3' of 12 (mixed)
RNA 1: B1 RNA 1
RNA 2: GGGAAUGGAUCCACAUCUACGAAUUCGUACUCAUAGAGAGGCUUAUCCGCUCACCGAGAUCGGAAGAGCACACGU
B14: target 1 MT 5'PFS CUC 3'PFS CAU (mixed)
RNA 1: B1 RNA 1
RNA 2: B1 RNA 2 with U27C, G28U, U29C
B15: target 1 MT 5'PFS UAA 3'PFS UUU (mixed)
RNA 1: B1 RNA 1
RNA 2: B1 RNA 2 with G28A, U29A, C52U, A53U
B16: target 1 MT 5'PFS UAA 3'PFS UUG (mixed)
RNA 1: B1 RNA 1
RNA 2: B1 RNA 2 with G28A, U29A, C52U, A53U, U54G
B17: target 1 MT 5'PFS GGG 3'PFS GUG (mixed)
RNA 1: B1 RNA 1
RNA 2: B1 RNA 2 with U27G, U29G, C52G, A53U, U54G
B18: target 1 MT 5'PFS CAU 3'PFS UUA (mixed)
RNA 1: B1 RNA 1
RNA 2: B1 RNA 2 with U27C, G28A, C52U, A53U, U54A
B19: target 1 MT 5'PFS GGA 3'PFS CCU (mixed)
RNA 1: B1 RNA 1
RNA 2: B1 RNA 2 with U27G, U29A, A53C
B20: target 1 MT 5'PFS UAA 3'PFS UUC (mixed)
RNA 1: B1 RNA 1
RNA 2: B1 RNA 2 with G28A, U29A, C52U, A53U, U54C
B21: target 1 MT 5'PFS GUC 3'PFS UGG (mixed)
RNA 1: B1 RNA 1
RNA 2: B1 RNA 2 with U27G, G28U, U29C, C52U, A53G, U54G
B22: target 1 MT 5'PFS CCG 3'PFS AAA (mixed)
RNA 1: B1 RNA 1
RNA 2: B1 RNA 2 with U27C, G28C, U29G, C52A, U54A
B23: target 1 MT 5'PFS GGA 3'PFS AAG (mixed)
RNA 1: B1 RNA 1
RNA 2: B1 RNA 2 with U27G, U29A, C52A, U54G
B24: target 1 MT 5'PFS GGC 3'PFS CAG (mixed)
RNA 1: B1 RNA 1
RNA 2: B1 RNA 2 with U27G, U29C, U54G
B25: target 1 MT 5'PFS CAG 3'PFS CUG (mixed)
RNA 1: B1 RNA 1
RNA 2: B1 RNA 2 with U27C, G28A, U29G, A53U, U54G
B26: target 1 MT 5'PFS GUC 3'PFS UGC (mixed)
RNA 1: B1 RNA 1
RNA 2: B1 RNA 2 with U27G, G28U, U29C, C52U, A53G, U54C
B27: target 1 MT 5'PFS UUA 3'PFS UCA (mixed)
RNA 1: B1 RNA 1
RNA 2: B1 RNA 2 with G28U, U29A, C52U, A53C, U54A
B28: target 1 MT 5'PFS UUG 3'PFS UCU (mixed)
RNA 1: B1 RNA 1
RNA 2: B1 RNA 2 with G28U, U29G, C52U, A53C
B29: target 1 MT 5'PFS GGA 3'PFS CCG (mixed)
RNA 1: B1 RNA 1
RNA 2: B1 RNA 2 with U27G, U29A, A53C, U54G
B30: target 1 MT 5'PFS GGA 3'PFS AAC (mixed)
RNA 1: B1 RNA 1
RNA 2: B1 RNA 2 with U27G, U29A, C52A, U54C
B31: target 1 MT 5'PFS UUA 3'PFS ACG (mixed)
RNA 1: B1 RNA 1
RNA 2: B1 RNA 2 with G28U, U29A, C52A, A53C, U54G
B32: target 1 MT 5'PFS AAA 3'PFS CGA (mixed)
RNA 1: B1 RNA 1
RNA 2: B1 RNA 2 with U27A, G28A, U29A, A53G, U54A
B33: target 1 C2A,A14C (mixed)
RNA 1: B1 RNA 1
RNA 2: B1 RNA 2 with U27G, G28U, U29A, A38C, C50A, A53C, U54G
B34: target 1 MT 5'PFS GGA 3'PFS AAU (mixed)
RNA 1: B1 RNA 1
RNA 2: B1 RNA 2 with U27G, U29A, C52A
B35: target 1 MT 5'PFS UUA 3'PFS ACA (mixed)
RNA 1: B1 RNA 1
RNA 2: B1 RNA 2 with G28U, U29A, C52A, A53C, U54A
B36: target 1 MT 5'PFS UAA 3'PFS UUA (mixed)
RNA 1: B1 RNA 1
RNA 2: B1 RNA 2 with G28A, U29A, C52U, A53U, U54A
B37: target 1 C2U,A9G (mixed)
RNA 1: B1 RNA 1
RNA 2: B1 RNA 2 with U27G, G28U, U29A, A43G, C50U, A53C, U54G
B38: target 1 MT 5'PFS UUA 3'PFS ACC (mixed)
RNA 1: B1 RNA 1
RNA 2: B1 RNA 2 with G28U, U29A, C52A, A53C, U54C
B39: target 1 insG 3' of 14,insA 3' of 7 (mixed)
RNA 1: B1 RNA 1
RNA 2: GGGAAUGGAUCCACAUCUACGAAUUCGUACCAUAGAGAGGGUUAUCACGCUCACCGAGAUCGGAAGAGCACACGU
B40: target 1 MT 5'PFS UCA 3'PFS AUC (mixed)
RNA 1: B1 RNA 1
RNA 2: B1 RNA 2 with G28C, U29A, C52A, A53U, U54C

Molecular target: T1, EsCas13d, nuclease-dead
Assay: crRNA (strand 1, pre-loaded); Mg2+; 40 mM Tris-HCl pH 7.5, 150 mM NaCl, 6 mM MgCl2, 1 mM DTT, 0.1% Tween-20, 0.2 mg/ml BSA; 25 C; 10 min per concentration, then washed
Settings: tags: His6-TwinStrep-SUMO cleaved; N-terminal SNAP kept (SNAP-Surface 488); label: 3' end held by stalled T7 RNA polymerase

Row | Binder | Kd
1 | B1 | ~52 nM
2 | B2 | 8.55 ± 3.25 nM
3 | B3 | 41.5 ± 12.5 nM
4 | B4 | 18.4 ± 1 nM
5 | B5 | 58.5 ± 22.5 nM
6 | B6 | 56 ± 17 nM
7 | B7 | 35 ± 16 nM
8 | B8 | 59 ± 19 nM
9 | B9 | 41 ± 10 nM
10 | B10 | ~27.2 nM
11 | B11 | 13.6 ± 2.85 nM
12 | B12 | ~27 nM
13 | B13 | 92 ± 34 nM
14 | B14 | ~55 nM
15 | B15 | 49 ± 14 nM
16 | B16 | 16.8 ± 2.95 nM
17 | B17 | 7.25 ± 0.95 nM
18 | B18 | ~70 nM
19 | B19 | 10.3 ± 2.85 nM
20 | B20 | 22.9 ± 4.25 nM

Row | Binder | Kd
21 | B21 | 65 ± 15.5 nM
22 | B22 | 27.5 ± 8 nM
23 | B23 | 24.1 ± 3.95 nM
24 | B24 | 25.5 ± 8.5 nM
25 | B25 | 19 ± 7.5 nM
26 | B26 | 13.2 ± 2.95 nM
27 | B27 | 25 ± 6.5 nM
28 | B28 | 20.9 ± 3.9 nM
29 | B29 | 28.5 ± 7.5 nM
30 | B30 | 24.5 ± 5 nM
31 | B31 | 21.8 ± 4.7 nM
32 | B32 | 30 ± 14.5 nM
33 | B33 | 48.7 ± 3.1 nM
34 | B34 | 21 ± 5.5 nM
35 | B35 | 37 ± 13 nM
36 | B36 | 28.5 ± 6.5 nM
37 | B37 | 15.4 ± 1.4 nM
38 | B38 | ~22.5 nM
39 | B39 | 6.2 ± 0.5 nM
40 | B40 | ~11 nM
